According to publication PMC10533412, “Phosphoantigens glue butyrophilin 3A1 and 2A1 to activate Vγ9Vδ2 T cells” (Nature, 2023):

Legend:
[1] = target: BTN2A1 B30.2 domain (UniProt Q7KYR7); experiment: ITC; conditions: with HMBPP
[2] = target: HMBPP; experiment: ITC
[3] = target: VpBTN3 butyrophilin full intracellular domain (BFI) (alpaca (Vicugna pacos)); experiment: ITC; with IPP; conditions: domain or fragment
[4] = target: VpBTN3 butyrophilin full intracellular domain (BFI) (alpaca (Vicugna pacos)); experiment: ITC; with DMAPP; conditions: domain or fragment
[5] = target: VpBTN3 butyrophilin full intracellular domain (BFI) (alpaca (Vicugna pacos)); experiment: ITC; with HMBPP; conditions: domain or fragment

BTN2A1 B30.2 domain, sequence (Q7KYR7 whole entry, looked up, tested part not stated): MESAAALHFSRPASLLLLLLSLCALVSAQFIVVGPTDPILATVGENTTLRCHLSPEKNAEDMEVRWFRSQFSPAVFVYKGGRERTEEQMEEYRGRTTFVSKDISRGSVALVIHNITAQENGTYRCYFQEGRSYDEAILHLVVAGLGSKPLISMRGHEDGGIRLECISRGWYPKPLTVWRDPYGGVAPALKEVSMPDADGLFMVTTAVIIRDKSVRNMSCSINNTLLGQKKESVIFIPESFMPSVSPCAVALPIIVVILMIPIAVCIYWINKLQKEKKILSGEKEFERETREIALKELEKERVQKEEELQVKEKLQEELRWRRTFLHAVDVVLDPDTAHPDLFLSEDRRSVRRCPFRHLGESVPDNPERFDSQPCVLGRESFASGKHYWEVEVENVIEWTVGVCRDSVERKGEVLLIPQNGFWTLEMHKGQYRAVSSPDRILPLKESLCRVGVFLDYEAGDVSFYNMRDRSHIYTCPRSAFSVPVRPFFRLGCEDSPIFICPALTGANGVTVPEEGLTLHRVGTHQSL

Substance | Kd [1] [µM] | Kd [2] [µM] | Kd [3] [µM] | Kd [4] [µM] | Kd [5] [µM]
BTN3A3 B30.2 R351H | 0.46 | 10.9 | – | – | –
VpBTN2 butyrophilin full intracellular domain (BFI) | – | – | 191 | 46.5 | 0.658
